Reference: patent US20020048794A1 (published 2002)

What was measured:
[1] = molecular target: T1, VHL (von Hippel-Lindau tumor suppressor protein), full-length (Homo sapiens (Human), UniProt P40337 1-213, 35S-methionine labeled in the in vitro assays); test: co-immunoprecipitation with anti-FLAG, in vitro translated proteins
T1 construct: also called 35S-labeled VHL; 35S-labeled full-length VHL

[2] = molecular target: T1, VHL (von Hippel-Lindau tumor suppressor …); test: co-immunoprecipitation with anti-GAL4, in vitro translated proteins
[3] = molecular target: 35S-labeled, in vitro translated full length HIF-1 alpha (human, UniProt Q16665 1-826, 35S-methionine labeled); test: as above

B1: FLAG-tagged mutant N-TAD of HIF-1 alpha (PYI triplet substituted with three aspartic acid residues) (other, not shown: small tags and cut ends)
chain: KLELVEKLFAEDTEAKNPFSTQDTDLDLEMLADDDPMDDDFQLRSFDQLSPLES
notes: also called mt N-TAD; PYI mutant N-TAD
binding result [1]: no binding

B2: GAL4/HIF-1 alpha 778-826 (other)
chain: MKLLSSIEQACDICRLKKLKCSKEKPKCAKCLKNNWECRYSPKTKRSPLTRAHLTEVESRLERLEQLFLLIFPREDLDMILKMDSLQDIKALLTGLFVQDNVNKDAVTDRLASVETDMPLTLRQHRISATSSSEESSNKGQRQLTVSLACRLLGQSMDESGLPQLTSYDCEVNAPIQGSRNLLQGEELLRALDQVN
binding result [2]: no binding

B3: GAL4/VHL 114-154 fragment (other)
chain: MKLLSSIEQACDICRLKKLKCSKEKPKCAKCLKNNWECRYSPKTKRSPLTRAHLTEVESRLERLEQLFLLIFPREDLDMILKMDSLQDIKALLTGLFVQDNVNKDAVTDRLASVETDMPLTLRQHRISATSSSEESSNKGQRQLTVSGHLWLFRDAGTHDGLLVNQTELFVPSLNVDGQPIFANITLP
binding result [3]: no binding
